Biological target: wild-type Pfs48/45 D3 (6C domain), glycosylated (Plasmodium falciparum) (UniProt Q8I6T1)
UniProt Q8I6T1, sequence (Q8I6T1 291-428, tags left off): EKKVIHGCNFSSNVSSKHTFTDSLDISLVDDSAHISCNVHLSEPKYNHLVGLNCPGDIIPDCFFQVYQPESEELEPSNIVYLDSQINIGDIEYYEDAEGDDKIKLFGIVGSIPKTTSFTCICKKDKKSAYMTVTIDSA

Substance “TB31F neutralizing monoclonal antibody (humanized version of mAb 85RF45.1) (from UniProt P0DOY2 1-106)” has a Kd of 2.5 nM, a koff of 0.00082 s⁻¹ and a kon of 350000 M⁻¹ s⁻¹.

— patent US20260207725A1
